Measured values reported in PMC8091585.

Tests used:
[1] = biological target: Pyruvate:ferredoxin oxidoreductase PFOR1 of Thermoanaerobacter kivui (Thermoanaerobacter kivui); assay: SEC; analytical size exclusion chromatography on a calibrated Superdex 200 column, buffer E (50 mM Tris/HCl, 150 mM NaCl, 20 mM MgSO4, 2 mM DTE, 4 µM resazurin, 20% glycerol, pH 7.5), size standards ovalbumin, albumin, catalase, ferritin
[2] = biological target: Pyruvate:ferredoxin oxidoreductase PFOR1 of Thermoanaerobacter kivui (Thermoanaerobacter kivui)

| stoichiometry N [1] | Km for Fd of the pyruvate-dependent Fd reduction by purified PFOR1 (enzyme activity, 66 °C, pH 7.5, Fd 0-50 µM) [2] | Molecule |
| --- | --- | --- |
| 2 |  | Pyruvate:ferredoxin oxidoreductase PFOR1 of Thermoanaerobacter kivui (enzyme) |
|  | 19.1 µM | Ferredoxin isolated from Clostridium pasteurianum (natural protein) MAYKIADSCVSCGACASECPVNAISQGDSIFVIDADTCIDCGNCANVCPVGAPVQE |
